Experimental data: patent US20110086089

Experiments:
[1] = molecular target: phosphomimicking mutant p27.S83D/T187D (recombinant, His-tagged)
[2] = molecular target: p27.T187A (recombinant, His-tagged)
[3] = molecular target: p27.Pi-S83, p27 pre-phosphorylated in vitro by CK2-alpha-prime at S83
[4] = molecular target: p27deltaPi (p27.S83A/T187A; recombinant, His-tagged)
[5] = molecular target: p27.S83A (recombinant, His-tagged)
[6] = molecular target: recombinant His-tagged wt.p27
[7] = molecular target: p27.Pi-S83/T187, p27 pre-phosphorylated in vitro by CK2-alpha-prime at S83 and T187
[8] = molecular target: p27.Pi-T187, p27 pre-phosphorylated in vitro by CK2-alpha-prime at T187
p27.Pi-T187, p27 pre-phosphorylated in vitro by CK2-alpha-prime at T187, sequence (chain, as listed by the source): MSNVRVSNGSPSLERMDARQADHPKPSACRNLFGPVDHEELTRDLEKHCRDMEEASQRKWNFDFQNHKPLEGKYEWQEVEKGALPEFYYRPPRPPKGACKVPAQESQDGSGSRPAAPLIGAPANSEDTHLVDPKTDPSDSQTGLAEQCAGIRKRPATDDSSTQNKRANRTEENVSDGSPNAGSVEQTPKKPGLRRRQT

p27deltaPi (p27.S83A/T187A; recombinant, His-tagged), sequence (chain, as listed by the source S83A T187A): as the sequence (chain, as listed by the source) above, with T187A counted along it
p27.S83A (recombinant, His-tagged), sequence (chain, as listed by the source S83A): as the sequence (chain, as listed by the source) above
phosphomimicking mutant p27.S83D/T187D (recombinant, His-tagged), sequence (chain, as listed by the source S83D T187D): as the sequence (chain, as listed by the source) above, with A83D, T187D counted along it

B1: recombinant active His-tagged CK2-alpha-prime/beta (protein)
chain 1: MPGPAAGSRARVYAEVNSLRSREYWDYEAHVPSWGNQDDYQLVRKLGRGKYSEVFEAINITNNERVVVKILKPVKKKKIKREVKILENLRGGTNIIKLIDTVKDPVSKTPALVFEYINNTDFKQLYQILTDFDIRFYMYELLKALDYCHSKGIMHRDVKPHNVMIDHQQKKLRLIDWGLAEFYHPAQEYNVRVASRYFKGPELLVDYQMYDYSLDMWSLGCMLASMIFRREPFFHGQDNYDQLVRIAKVLGTEELYGYLKKYHIDLDPHFNDILGQHSRKRWENFIHSENRHLVSPEALDLLDKLLRYDHQQRLTAKEAMEHPYFYPVVKEQSQPCADNAVLSSGLTAAR
chain 2: not shown
[1]
  recombinant CK2-alpha-prime activity in vitro (32P incorporated into histone H1): Simultaneous phosphorylation of S83/T187 in p27.Pi-S83/T187 or introducing phosphomimicking mutations in p27.S83D/T187D abolished the ability of p27 to inhibit CK2-alpha-prime
[2]
  reduction in phosphorylation by CK2-alpha-prime: The S83A and T187A point mutants exhibited a 68% and 27% reduction in phosphorylation by CK2-alpha-prime, respectively
[3]
  recombinant CK2-alpha-prime activity in vitro (32P incorporated into histone H1): an incremental loss of p27 inhibitory activity towards CK2-alpha-prime when compared to wt.p27
[4]
  phosphorylation of p27 in in vitro kinase reactions (32P incorporated into p27): CK2-alpha-prime failed to phosphorylate p27deltaPi containing double-substituted mutations (S83A/T187A)
[5]
  reduction in phosphorylation by CK2-alpha-prime: The S83A and T187A point mutants exhibited a 68% and 27% reduction in phosphorylation by CK2-alpha-prime, respectively
[6]
  phosphorylation of p27 in in vitro kinase reactions (32P incorporated into p27): Wt.p27 was phosphorylated by CK2-alpha-prime
  recombinant CK2-alpha-prime activity in vitro (32P incorporated into histone H1): Wt.p27 completely inhibited recombinant CK2-alpha-prime activity in vitro
[7]
  recombinant CK2-alpha-prime activity in vitro (32P incorporated into histone H1): Simultaneous phosphorylation of S83/T187 in p27.Pi-S83/T187 or introducing phosphomimicking mutations in p27.S83D/T187D abolished the ability of p27 to inhibit CK2-alpha-prime
[8]
  recombinant CK2-alpha-prime activity in vitro (32P incorporated into histone H1): an incremental loss of p27 inhibitory activity towards CK2-alpha-prime when compared to wt.p27

B2: catalytically-inactive kinase-dead CK2-alpha-prime (kd.CK2-alpha-prime), K69M (protein)
chain: MPGPAAGSRARVYAEVNSLRSREYWDYEAHVPSWGNQDDYQLVRKLGRGKYSEVFEAINITNNERVVVMILKPVKKKKIKREVKILENLRGGTNIIKLIDTVKDPVSKTPALVFEYINNTDFKQLYQILTDFDIRFYMYELLKALDYCHSKGIMHRDVKPHNVMIDHQQKKLRLIDWGLAEFYHPAQEYNVRVASRYFKGPELLVDYQMYDYSLDMWSLGCMLASMIFRREPFFHGQDNYDQLVRIAKVLGTEELYGYLKKYHIDLDPHFNDILGQHSRKRWENFIHSENRHLVSPEALDLLDKLLRYDHQQRLTAKEAMEHPYFYPVVKEQSQPCADNAVLSSGLTAAR
[6]
  phosphorylation of p27 in in vitro kinase reactions (32P incorporated into p27): Wt.p27 was phosphorylated by CK2-alpha-prime but not catalytically-inactive kinase-dead CK2-alpha-prime (kd. CK2-alpha-prime)
